Experimental data published in US20230279089A1.

How the values were obtained:
Test in all cases: cell-based or functional assay
[1] = target: BMP1/TLL activity in rat plasma
[2] = target: BMP1/TLL activity in human serum
[3] = target: BMP1/TLL activity in mouse plasma
[4] = target: endogenous BMP1 of human primary cardiac fibroblasts (human), P13497
Sequence of endogenous BMP1 of human primary cardiac fibroblasts (human), P13497 (P13497 121-986): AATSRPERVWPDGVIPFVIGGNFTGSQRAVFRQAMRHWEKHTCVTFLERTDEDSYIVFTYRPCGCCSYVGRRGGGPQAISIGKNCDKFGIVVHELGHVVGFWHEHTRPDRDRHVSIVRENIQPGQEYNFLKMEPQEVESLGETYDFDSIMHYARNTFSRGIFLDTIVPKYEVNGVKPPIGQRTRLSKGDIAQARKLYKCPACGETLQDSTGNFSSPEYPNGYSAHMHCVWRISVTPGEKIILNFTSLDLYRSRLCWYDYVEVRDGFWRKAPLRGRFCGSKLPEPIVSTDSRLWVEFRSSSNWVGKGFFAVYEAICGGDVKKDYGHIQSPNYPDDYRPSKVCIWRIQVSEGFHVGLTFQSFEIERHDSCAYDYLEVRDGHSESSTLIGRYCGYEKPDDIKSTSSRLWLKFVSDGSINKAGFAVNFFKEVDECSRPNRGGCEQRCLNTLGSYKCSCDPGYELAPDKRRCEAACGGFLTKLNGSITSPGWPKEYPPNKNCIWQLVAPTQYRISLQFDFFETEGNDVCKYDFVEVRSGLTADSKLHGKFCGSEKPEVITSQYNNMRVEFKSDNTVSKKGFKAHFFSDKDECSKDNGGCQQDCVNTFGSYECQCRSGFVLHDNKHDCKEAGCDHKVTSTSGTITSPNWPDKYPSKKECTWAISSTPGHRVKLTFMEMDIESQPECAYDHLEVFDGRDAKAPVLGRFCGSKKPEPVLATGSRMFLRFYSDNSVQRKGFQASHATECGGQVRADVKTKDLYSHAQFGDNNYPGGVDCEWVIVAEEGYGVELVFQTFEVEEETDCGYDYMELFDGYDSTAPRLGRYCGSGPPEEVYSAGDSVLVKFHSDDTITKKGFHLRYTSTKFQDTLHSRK

| pIC50, FRET enzyme activity, Rat plasma (n = 2) [1] | pIC50, FRET enzyme activity, Human serum (n = 1) [2] | pIC50, FRET enzyme activity, Mouse plasma (n = 1) [3] | pIC50, scar-in-a-jar (SIJ) assay [4] | Binder |
| --- | --- | --- | --- | --- |
| 9.1 | 8.7 |  |  | 13Y039-4B06-4334 human variable region on rat IgG2b LAGA Fc and rat Kappa (Compound C) (antibody) heavy: QVQLVQSGAEVKKPGASVKVSCKASGYTFLGYYMSWVRQAPGQGLEWMGWINPLSGETNYAQKFQGRVTMTRDTSISTAYMELSRLRSDDTAVYYCARDTGELDGMNWYFDLWGRGTLVTVSSAQTTAPSVYPLAPGCGDTTSSTVTLGCLVKGYFPEPVTVTWNSGALSSDVHTFPAVLQSGLYTLTSSVTSSTWPSQTVTCNVAHPASSTKVDKKVERRNGGIGHKCPTCPTCHKCPVPELAGAPSVFIFPPKPKDILLISQNAKVTCVVVDVSEEEPDVQFSWFVNNVEVHTAQTQPREEQYNSTFRVVSALPIQHQDWMSGKEFKCKVNNKALPSPIEKTISKPKGLVRKPQVYVMGPPTEQLTEQTVSLTCLTSGFLPNDIGVEWTSNGHIEKNYKNTEPVMDSDGSFFMYSKLNVERSRWDSRAPFVCSVVHEGLHNHHVEKSISRPPGK light: EIVLTQSPATLSLSPGERATLSCRASQSVSSYLAWYQQKPGQAPRLLIYDASNRATGIPARFSGSGSGTDFTLTISSLEPEDFAVYYCQQSDSWPPTFGGGTKVEIKRADAAPTVSIFPPSTEQLATGGASVVCLMNNFYPRDISVKWKIDGTERRDGVLDSVTDQDSKDSTYSMSSTLSLTKADYESHNLYTCEVVHKTSSSPVVKSFNRNEC |
|  | 10.1 | 7.5 | 9.8 | 13Y039-4B06-4334 human variable region on mouse IgG2a LAGA Fc, mouse cKappa (Compound A) (antibody) heavy: QVQLVQSGAEVKKPGASVKVSCKASGYTFLGYYMSWVRQAPGQGLEWMGWINPLSGETNYAQKFQGRVTMTRDTSISTAYMELSRLRSDDTAVYYCARDTGELDGMNWYFDLWGRGTLVTVSSAKTTAPSVYPLAPVCGDTTGSSVTLGCLVKGYFPEPVTLTWNSGSLSSGVHTFPAVLQSDLYTLSSSVTVTSSTWPSQSITCNVAHPASSTKVDKKIEPRGPTIKPCPPCKCPAPNLAGAPSVFIFPPKIKDVLMISLSPIVTCVVVDVSEDDPDVQISWFVNNVEVHTAQTQTHREDYNSTLRVVSALPIQHQDWMSGKEFKCKVNNKDLPAPIERTISKPKGSVRAPQVYVLPPPEEEMTKKQVTLTCMVTDFMPEDIYVEWTNNGKTELNYKNTEPVLDSDGSYFMYSKLRVEKKNWVERNSYSCSVVHEGLHNHHTTKSFSRTPGK light: EIVLTQSPATLSLSPGERATLSCRASQSVSSYLAWYQQKPGQAPRLLIYDASNRATGIPARFSGSGSGTDFTLTISSLEPEDFAVYYCQQSDSWPPTFGGGTKVEIKRADAAPTVSIFPPSSEQLTSGGASVVCFLNNFYPKDINVKWKIDGSERQNGVLNSWTDQDSKDSTYSMSSTLTLTKDEYERHNSYTCEATHKTSTSPIVKSFNRNEC |
